Test results: PMC10201421

Target: CTD (nucleocapsid C-terminal RNA binding domain) (SARS-CoV-2, UniProt P0DTC9 247-364)
Assay: ITC

B1: s2m-CoV-2 (structured_RNA)
RNA: GGUUCACCGAGGCCACGCGGAGUACGAUCGAGUGUACAGUGAACC
Q: Which Kd does the source give for B1 here?
A: Its Kd is 600 ± 200 nM.
